Assays:
[1] = target: T1, Amyloid Beta (Aβ) 1-42 (human); experiment: competition ELISA, plate coated with fibril Aβ42, competitor hBP-biotin; IC50 of test divided by IC50 of hBP
T1 construct: The same peptide was used in several aggregation states: fibrils, a heterogeneous aggregate mixture, and soluble oligomers or aggregates; also called Aβ42; Aβ 42

[2] = target: T1, Amyloid Beta (Aβ) 1-42; experiment: SPR (BIAcore T200), Aβ1-42 fibrils immobilized on CM5, Fab as analyte, global 1:1 fit
[3] = target: T1, Amyloid Beta (Aβ) 1-42; experiment: SPR (BIAcore T200), Aβ1-42 fibrils immobilized on CM5, Fab as analyte, global 1:1 fit; apparent KD
[4] = target: T1, Amyloid Beta (Aβ) 1-42; experiment: competition ELISA on plate-coated Aβ42 fibrils; competitor: biotinylated hBP (bapineuzumab)
[5] = target: T1, Amyloid Beta (Aβ) 1-42; experiment: cell-based or functional assay
[6] = target: T1, Amyloid Beta (Aβ) 1-42; experiment: direct ELISA on plate-coated Aβ42 fibrils (FIG. 21)
[7] = target: T1, Amyloid Beta (Aβ) 1-42; experiment: SPR (BIAcore T200), Aβ1-42 fibrils immobilized on CM5, antibody as analyte, global 1:1 fit
[8] = target: T1, Amyloid Beta (Aβ) 1-42; experiment: SPR (BIAcore T200), Aβ1-42 fibrils immobilized on CM5, antibody as analyte, global 1:1 fit; apparent KD
[9] = target: T1, Amyloid Beta (Aβ) 1-42; experiment: direct ELISA, fibril aBeta plate coat titrated, antibody held constant at 2 ug/ml; no unit in the table, x axis 'log ng/ml Abeta' [right panel]
[10] = target: T1, Amyloid Beta (Aβ) 1-42; experiment: direct ELISA, antibody titrated on 2.5 ug/ml plate-coated fibril Abeta; the row head of the drawn table reads 'IC50', the note below it says EC50; no unit in the table, x axis 'log ng/ml antibody' [left panel]

T1 sequence (peptide, as listed by the source): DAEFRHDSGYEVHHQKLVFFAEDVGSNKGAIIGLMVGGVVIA

B1: h2826 (antibody, V domains shown)
VH: EVQLLESGGGLVQPGGSLRLSCAASGFTFSNFGMSWVRQAPGKGLEWVASVRSGSGRTYYSDNVKGRFTISRDNSKNTLYLQMNSLRAEDTAVYYCVRYDHYSGTSDYWGQGTLVTVSS
VL: DVVMTQSPLSLPVTPGEPASISCKSSQSLLDYDGKTYLNWLLQKPGQSPQRLIYKVSNRDSGVPDRFSGSGSGTDFTLKISRVEAEDVGVYYCWQGTHFPRTFGQGTKVEIK
With B1 the “IC50 ratio (test:hBP)” value [1] was 1.1.

B2: h2726 Fab (Fab, V domains shown)
VH: EVQLLESGGGLVQPGGSLRLSCAASGFTFSNYGMSWVRQAPGKGLEWVASIRSGSGRTYYSDNVKGRFTISRDNSKNTLYLQMNSLRAEDTAVYYCVRYDHYSGSSDYWGQGTLVTVSS
VL: DVVMTQSPLSLPVTPGEPASISCKSSQSLLDYDGKTYLNWLLQKPGQSPQRLIYKVSNRDSGVPDRFSGSGSGTDFTLKISRVEAEDVGVYYCWQGTHFPRTFGQGTKVEIK
In the case of B2, the koff [2] is reported as 0.000259 s⁻¹, the kon [2] is reported as 129000 M⁻¹ s⁻¹ and the Kd [3] is reported as 2.01 nM.

B3: 4918 (antibody, V domains shown)
VH: EVQLLESGGGLVQPGGSLRLSCAASGFTFSNFGMSWVRQAPGKGLEWVASVRSGGGRTYYSDNVKGRFTISRDNSKNTLYLQMNSLRAEDTAVYYCVRYDHYSGTSDYWGQGTLVTVSS
VL: DVVMTQSPLSLPVTLGEPASISCKSSQSLMDTDGKTYLNWLLQKPGQSPQRLIYKVSNRESGVPDRFSGSGSGTDFTLKISRVEAEDVGVYYCWQGTHFPRTFGQGTKVEIK
notes: It is not in the first reading's list; also called h4918G; h4918
B3: binds [4].

B4: h49k3G (antibody, V domains shown)
VH: EVQLLESGGGLVQPGGSLRLSCAASGFTFSNFGMSWVRQAPGKGLEWVASVRSGGGRTYYSDNVKGRFTISRDNSKNTLYLQMNSLRAEDTAVYYCVRYDHYSGTSDYWGQGTLVTVSS
VL: DVVMTQSPLSLPVTLGEPASISCKSSQSLLDSDGKTYLNWLLQKPGQSPQRLIYKVSNRDSGVPDRFSGSGSGTDFTLKISRVEAEDVGVYYCWQGTHFPRTFGQGTKVEIK
notes: also called h49_hum3; 49human3
With B4 the “IC50 ratio (test:hBP)” value [1] was 2.16.

B5: h2927 (antibody, V domains shown)
VH: EVQLLESGGGLVQPGGSLRLSCAASGFTFSNFGMSWVRQAPGKGLEWVASVRSGSGRTYYSDNVKGRFTISRDNSKNTLYLQMNSLRAEDTAVYYCVRYDHYTGTSDYWGQGTLVTVSS
VL: DVVMTQSPLSLPVTPGEPASISCKSSQSLLDYDGKTYLNWLLQKPGQSPQRLIYKVSNRDSGVPDRFSGSGSGTDFTLKISRVEAEDVGVYYCWQGTHFPRSFGQGTKVEIK
In the case of B5, the “IC50 ratio (test:hBP)” value [1] is reported as 1.6.

B6: h2727 (antibody, V domains shown)
VH: EVQLLESGGGLVQPGGSLRLSCAASGFTFSNYGMSWVRQAPGKGLEWVASIRSGSGRTYYSDNVKGRFTISRDNSKNTLYLQMNSLRAEDTAVYYCVRYDHYSGSSDYWGQGTLVTVSS
VL: DVVMTQSPLSLPVTPGEPASISCKSSQSLLDYDGKTYLNWLLQKPGQSPQRLIYKVSNRDSGVPDRFSGSGSGTDFTLKISRVEAEDVGVYYCWQGTHFPRSFGQGTKVEIK
For B6, the “IC50 ratio (test:hBP)” value [1] was 3.06.

B7: h2731 Fab (Fab, V domains shown)
VH: EVQLLESGGGLVQPGGSLRLSCAASGFTFSNYGMSWVRQAPGKGLEWVASIRSGSGRTYYSDNVKGRFTISRDNSKNTLYLQMNSLRAEDTAVYYCVRYDHYSGSSDYWGQGTLVTVSS
VL: DVVMTQSPLSLPVTLGEPASISCKSSQSLLDYDGKTYLNWLLQKPGQSPQRLIYRVTNRDTGVPDRFSGSGSGTDFTLKISRVEAEDVGVYYCWQGTHFPRSFGQGTKVEIK
For B7, the koff [2] was 0.000289 s⁻¹, the kon [2] was 129000 M⁻¹ s⁻¹ and the Kd [3] was 2.24 nM.

B8: bapineuzumab Fab (Fab, V domains shown)
VH: EVQLLESGGGLVQPGGSLRLSCAASGFTFSNYGMSWVRQAPGKGLEWVASIRSGGGRTYYSDNVKGRFTISRDNSKNTLYLQMNSLRAEDTAVYYCVRYDHYSGSSDYWGQGTLVTVSS
VL: DVVMTQSPLSLPVTPGEPASISCKSSQSLLDSDGKTYLNWLLQKPGQSPQRLIYLVSKLDSGVPDRFSGSGSGTDFTLKISRVEAEDVGVYYCWQGTHFPRTFGQGTKVEIK
notes: also called hBP
For B8, the Kd [3] was 5.34 nM.

B9: h2931 (antibody, V domains shown)
VH: EVQLLESGGGLVQPGGSLRLSCAASGFTFSNFGMSWVRQAPGKGLEWVASVRSGSGRTYYSDNVKGRFTISRDNSKNTLYLQMNSLRAEDTAVYYCVRYDHYTGTSDYWGQGTLVTVSS
VL: DVVMTQSPLSLPVTLGEPASISCKSSQSLLDYDGKTYLNWLLQKPGQSPQRLIYRVTNRDTGVPDRFSGSGSGTDFTLKISRVEAEDVGVYYCWQGTHFPRSFGQGTKVEIK
notes: Humanized IgG
In the case of B9, the “IC50 of Abeta spots per neuron (% Abeta control); the table gives no unit, the x axis is 'mAb (µg/mL)'” value [5] is reported as 0.627 µg/mL, the “Total Area (under the curve of Abeta spots per neuron, % Abeta control)” value [5] is reported as 8480 and the “fold increase in assay signal (OD490) relative to aducanumab” value [6] is reported as 3 fold. For the same binder, the koff [7] was 2.05e-05 s⁻¹, the kon [7] was 335000 M⁻¹ s⁻¹ and the Kd [8] was 0.0612 nM. For the same binder, the “IC50 ratio (test:hBP)” value [1] was 0.59, the “IC50 (half-maximal fibril Abeta coating concentration at constant antibody)” value [9] was 0.335 µg/mL and the EC50 [10] was 0.0435 µg/mL.

B10: h2926 (antibody, V domains shown)
VH: EVQLLESGGGLVQPGGSLRLSCAASGFTFSNFGMSWVRQAPGKGLEWVASVRSGSGRTYYSDNVKGRFTISRDNSKNTLYLQMNSLRAEDTAVYYCVRYDHYTGTSDYWGQGTLVTVSS
VL: DVVMTQSPLSLPVTPGEPASISCKSSQSLLDYDGKTYLNWLLQKPGQSPQRLIYKVSNRDSGVPDRFSGSGSGTDFTLKISRVEAEDVGVYYCWQGTHFPRTFGQGTKVEIK
With B10 the “IC50 ratio (test:hBP)” value [1] was 0.99.

B11: h4921G (antibody, V domains shown)
VH: EVQLLESGGGLVQPGGSLRLSCAASGFTFSNFGMSWVRQAPGKGLEWVASVRSGGGRTYYSDNVKGRFTISRDNSKNTLYLQMNSLRAEDTAVYYCVRYDHYSGTSDYWGQGTLVTVSS
VL: DVVMTQSPLSLPVTLGEPASISCKSSQSLLDSDGKTYLNWLLQKPGQSPQRLIYRVTNRDTGVPDRFSGSGSGTDFTLKISRVEAEDVGVYYCWQGTHFPRTFGQGTKVEIK
With B11 the “IC50 ratio (test:hBP)” value [1] was 1.01.

B12: h2831 Fab (Fab, V domains shown)
VH: EVQLLESGGGLVQPGGSLRLSCAASGFTFSNFGMSWVRQAPGKGLEWVASVRSGSGRTYYSDNVKGRFTISRDNSKNTLYLQMNSLRAEDTAVYYCVRYDHYSGTSDYWGQGTLVTVSS
VL: DVVMTQSPLSLPVTLGEPASISCKSSQSLLDYDGKTYLNWLLQKPGQSPQRLIYRVTNRDTGVPDRFSGSGSGTDFTLKISRVEAEDVGVYYCWQGTHFPRSFGQGTKVEIK
Binder B12 has a koff [2] of 0.000248 s⁻¹, a kon [2] of 108000 M⁻¹ s⁻¹ and a Kd [3] of 2.31 nM.

B13: h2929 (antibody, V domains shown)
VH: EVQLLESGGGLVQPGGSLRLSCAASGFTFSNFGMSWVRQAPGKGLEWVASVRSGSGRTYYSDNVKGRFTISRDNSKNTLYLQMNSLRAEDTAVYYCVRYDHYTGTSDYWGQGTLVTVSS
VL: DVVMTQSPLSLPVTPGEPASISCRSSQSLVDYDGKTYLNWLLQRPGQSPQRLIYKVSNRDSGVPDRFSGSGSGTDFTLKISRVEAEDVGVYYCWQGSHFPRSYGQGTKVEIK
B13 was tested, and the “IC50 ratio (test:hBP)” value [1] was 1.16.

B14: h4917G (antibody, V domains shown)
VH: EVQLLESGGGLVQPGGSLRLSCAASGFTFSNFGMSWVRQAPGKGLEWVASVRSGGGRTYYSDNVKGRFTISRDNSKNTLYLQMNSLRAEDTAVYYCVRYDHYSGTSDYWGQGTLVTVSS
VL: DVVMTQSPLSLPVTLGEPASISCKSSQSLLDSDGKTYLNWLLQKPGQSPQRLIYKVTNRESGVPDRFSGSGSGTDFTLKISRVEAEDVGVYYCWQGTHFPRSFGQGTKVEIK
notes: also called h49_VK17
For B14, the “IC50 ratio (test:hBP)” value [1] was 2.69.

B15: h2931 Fab (Fab, V domains shown)
VH: EVQLLESGGGLVQPGGSLRLSCAASGFTFSNFGMSWVRQAPGKGLEWVASVRSGSGRTYYSDNVKGRFTISRDNSKNTLYLQMNSLRAEDTAVYYCVRYDHYTGTSDYWGQGTLVTVSS
VL: DVVMTQSPLSLPVTLGEPASISCKSSQSLLDYDGKTYLNWLLQKPGQSPQRLIYRVTNRDTGVPDRFSGSGSGTDFTLKISRVEAEDVGVYYCWQGTHFPRSFGQGTKVEIK
B15 was tested, and the koff [2] was 0.000199 s⁻¹, the kon [2] was 123000 M⁻¹ s⁻¹ and the Kd [3] was 1.62 nM.

B16: h3818G (antibody, V domains shown)
VH: EVQLLESGGGLVQPGGSLRLSCAASGFTFANYGMSWVRQAPGKGLEWVASVRSGGSRTYYSDNVKGRFTISRDNSKNTLYLQMNSLRAEDTAVYYCVRYDHYSGSSDYWGQGTLVTVSS
VL: DVVMTQSPLSLPVTLGEPASISCKSSQSLMDTDGKTYLNWLLQKPGQSPQRLIYKVSNRESGVPDRFSGSGSGTDFTLKISRVEAEDVGVYYCWQGTHFPRTFGQGTKVEIK
B16 was tested, and the “IC50 ratio (test:hBP)” value [1] was 1.18.

Source: patent publication US20250179161A1 (OTHAIR PROTHENA, published 2025)
